# Test results taken from patent publication US20080026996A1, “Selective Vpac2 Receptor Reptide Agonists” (ELI LILLY AND COMPANY, priority 2004, published 2008).
# Where no end group is shown, it is not given here. [ ]: non-standard residue; d: D form. The star is where a group is joined. Hexanoyl = CCCCCC(=O)*; Aib = CC(C)(N)C(=O)O
# T1: human VPAC2 receptor (human, UniProt P41587 24-438)
# T1 sequence (looked up): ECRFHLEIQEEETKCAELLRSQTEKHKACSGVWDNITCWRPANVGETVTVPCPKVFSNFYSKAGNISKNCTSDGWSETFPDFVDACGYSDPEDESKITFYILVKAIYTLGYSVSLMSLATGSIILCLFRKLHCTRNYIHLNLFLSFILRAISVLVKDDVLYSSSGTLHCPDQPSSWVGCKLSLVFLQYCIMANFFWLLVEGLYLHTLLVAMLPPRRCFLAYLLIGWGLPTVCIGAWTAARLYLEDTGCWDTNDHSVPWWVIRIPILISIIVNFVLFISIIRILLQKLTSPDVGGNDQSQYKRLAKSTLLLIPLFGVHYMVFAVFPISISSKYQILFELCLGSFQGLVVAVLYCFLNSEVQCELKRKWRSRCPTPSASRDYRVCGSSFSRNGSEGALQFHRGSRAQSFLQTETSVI
# Molecular target: T1, human VPAC2 receptor
# Assay: cell-based or functional assay
binder,measurement,value
Hexanoyl-HSDAVFTDNYTRLRK(Ac)QVAAK(Ac)KYLQSIKNKRYGGPSSGAPPPS [P193],"EC50 cAMP, Alpha Screen",0.18 nM
Hexanoyl-HSDAVFTDNYTRLRKQVAAKKFLQSIKNKRYGGPSSGAPPPS [P130],"EC50 cAMP, Alpha Screen",0.77 nM
Hexanoyl-HSDAVFTDNYTRLRKQVAAKKYLQSLKNKRYGGPSSGAPPPS [P107],"EC50 cAMP, Alpha Screen",0.12 nM
Hexanoyl-HSDAVFTDNYTRLRKQVAAKKYLQSWKNKRYGGPSSGAPPPS [P110],"EC50 cAMP, Alpha Screen",0.13 nM
Hexanoyl-HSDAVFTDNYTRLRKQVAAKKYLQVIKNKRYGGPSSGAPPPS [P116],"EC50 cAMP, Alpha Screen",0.12 nM
Hexanoyl-HSDAVFTDNYTRLKAQVAAKKYLQSIKNKRYGGPSSGAPPPS [P141],"EC50 cAMP, Alpha Screen",0.72 nM
Hexanoyl-HSDAVFTDNYTRLRRQVAARRYLQSIRNRRYGGPSSGAPPPS [P98],"EC50 cAMP, Alpha Screen",0.15 nM
Hexanoyl-HSDAVFTDNYTRLRKQVAAKKYLQFIKNKRYGGPSSGAPPPS [P112],"EC50 cAMP, Alpha Screen",0.16 nM
HSDAVFTDNYTRAKAKVAAKKYLQSIKNKRYGGPSSGAPPPS [P94],"EC50 cAMP, Alpha Screen",696 nM
same,"EC50 cAMP, DiscoveRx",> 1000 nM
Hexanoyl-H[dA]DAVFTDNYTRLRKQVAAKKYLQSIKNKRYGGPSSGAPPPS [P101],"EC50 cAMP, Alpha Screen",0.21 nM
Hexanoyl-HSDAVFTDNYTRLRAQVAAQKYLQSIKNKRYGGPSSGAPPPS [P138],"EC50 cAMP, Alpha Screen",0.45 nM
Hexanoyl-HSDAVFTDNYTRLRKQVAAKKYLQSYKNKRYGGPSSGAPPPS [P111],"EC50 cAMP, Alpha Screen",0.34 nM
Hexanoyl-HSDAVFTDNYTRLRKQVAAKKYLQYIKNKRYGGPSSGAPPPS [P127],"EC50 cAMP, Alpha Screen",0.22 nM
Hexanoyl-HSDAVFTDNYTRLRKQVAAKKYLQIIKNKRYGGPSSGAPPPS [P113],"EC50 cAMP, Alpha Screen",0.26 nM
Hexanoyl-HSDAVFTDNYTRLRKQVAAKKWLQSIKNKRYGGPSSGAPPPS [P129],"EC50 cAMP, Alpha Screen",0.49 nM
Hexanoyl-HSDAVFTDNYTRLRKQVAAKKVLQSIKNKRYGGPSSGAPPPS [P134],"EC50 cAMP, Alpha Screen",5.47 nM
HSDGVFTDNYTRLRKQVAAKKYLQSIKNKRYGGPSSGAPPPS [P102],"EC50 cAMP, Alpha Screen",27.4 nM
Hexanoyl-HSDAVFTDNYTRLRKQVAAKKYLQSFKNKRYGGPSSGAPPPS [P106],"EC50 cAMP, Alpha Screen",0.16 nM
Hexanoyl-HVDAVFTDNYTRLRKQVAAKKYLQSIKNKRYGGPSSGAPPPS [P99],"EC50 cAMP, Alpha Screen",0.14 nM
Hexanoyl-HSDAVFTDNYTRLRKQVAAKKYLQSVKNKRYGGPSSGAPPPS [P109],"EC50 cAMP, Alpha Screen",0.22 nM
Hexanoyl-HSDAVFTDNYTRLRKQVAAKKYLQWIKNKRYGGPSSGAPPPS [P117],"EC50 cAMP, Alpha Screen",0.2 nM
Hexanoyl-HSDAVFTDNYTRLRAQVAAKKYLQSIKNKRYGGPSSGAPPPS [P139],"EC50 cAMP, Alpha Screen",0.2 nM
Hexanoyl-HSDAVFTDNYTRLRKQVAAKKYLQLIKNKRYGGPSSGAPPPS [P114],"EC50 cAMP, Alpha Screen",0.14 nM
Hexanoyl-HSDAVFTDNYTRLRKQVAAKKILQSIKNKRYGGPSSGAPPPS [P133],"EC50 cAMP, Alpha Screen",2.7 nM
Hexanoyl-HSDAVFTDNYTRLRKQVAAKKYLQNIKNKRYGGPSSGAPPPS [P125],"EC50 cAMP, Alpha Screen",0.14 nM
Hexanoyl-HSDAVFTDNYTRLRKQVAAKKLLQSIKNKRYGGPSSGAPPPS [P132],"EC50 cAMP, Alpha Screen",3.1 nM
HSDAVFTDNYTRLLAKVAAKKYLQSIKNKRYGGPSSGAPPPS [P89],"EC50 cAMP, Alpha Screen",1.23 nM
same,"EC50 cAMP, DiscoveRx",0.7 nM
Hexanoyl-HSDAVFTDNYTRLRKQVAAKKTLQSIKNKRYGGPSSGAPPPS [P131],"EC50 cAMP, Alpha Screen",22.3 nM
Hexanoyl-HSDAVFTDNYTRLRKQVAAKKYLQQIKNKRYGGPSSGAPPPS [P124],"EC50 cAMP, Alpha Screen",0.09 nM
Hexanoyl-HSDAVFTDNYTKLKKQVAAKKYLQSIKNKKYGGPSSGAPPPS [P103],"EC50 cAMP, Alpha Screen",0.12 nM
Hexanoyl-HSDAVFTDNYTRLRKQVAAKKYLQSTKNKRYGGPSSGAPPPS [P108],"EC50 cAMP, Alpha Screen",0.27 nM
HSDAVFTDNYTRAAAKVAAKKYLQSIKNKRYGGPSSGAPPPS [P88],"EC50 cAMP, Alpha Screen",1720 nM
same,"EC50 cAMP, DiscoveRx",> 1000 nM
HSDAVFTDNYTREKEKVAAKKYLQSIKNKRYGGPSSGAPPPS [P87],"EC50 cAMP, Alpha Screen",> 10000 nM
MHSDAVFTDQYTRLRKQVAAKKYLQSIKQKRYGGPSSGAPPPS (N-terminal methionine added (M-)) [P100],"EC50 cAMP, Alpha Screen",0.28 nM
IHSDAVFTDNYTRLRKQVAAKKYLQSIKNKRYGGPSSGAPPPS (N-terminal isoleucine added (I-)) [P105],"EC50 cAMP, Alpha Screen",8.33 nM
Hexanoyl-HSDAVFTDNYTRLRKQVAAKKYLQS[Aib]KNKRYGGPSSGAPPPS (ends and bridges not checked) [P188],"EC50 cAMP, Alpha Screen",0.32 nM
